By Kd is commonly meant the constant that tells how readily two partners part at equilibrium. The low end stands for a tighter complex, the high end for a looser complex.

This note sets out measurements from article PMC7608914, “Bridging of nucleosome-proximal DNA double-strand breaks by PARP2 enhances its interaction with HPF1” (PLoS ONE, 2019).

Test [1] has as its target T1, Alexa488-labeled PARP2-WT (human, UniProt Q9UGN5-2 1-570, Alexa Fluor 488 C5 maleimide (extent of labeling typically between 20 and 80%); labelled residue not stated).
T1 construct: human Poly(ADP-ribose) Polymerase 2, isoform 2 cDNA in pET28b; the mutant made from this vector is called full-length; source: E. coli Rosetta2 (DE3) pLysS, purified (HisTrap, heparin, Superdex 200), then labelled
Nature of the test: FRET or BRET; Alexa647-labeled HPF1 (acceptor) titrated from 18.5 μM to 0 μM into 1 μM Alexa488-labeled PARP2 (donor) alone or into the preformed PARP2–Nuc165 complex (1 μM / 100 nM); 50 mM Tris-HCl pH 8, 50 mM NaCl, 1 mM MgCl2, 0.1 mM EDTA, 0.1 mM TCEP, 0.01% NP-40; Hill model. The settings on record: both partners purified. (In general: In BRET a luciferase serves as donor, and the signal depends on an acceptor being close.)

Test [2] deals with T2, Alexa488-labeled PARP2-QFRD (human, UniProt Q9UGN5-2 1-570, Q112R | F113D, Alexa Fluor 488 C5 maleimide (extent of labeling typically between 20 and 80%); labelled residue not stated).
T2 construct: human Poly(ADP-ribose) Polymerase 2, isoform 2 cDNA in pET28b, Q112R/F113D double point mutant; source: E. coli Rosetta2 (DE3) pLysS, purified (HisTrap, heparin, Superdex 200), then labelled
The description is as above. The settings on record: both partners purified.

B1: Alexa647-labeled HPF1 (natural protein, human, UniProt Q9NWY4 1-346, looked up)
chain: MVGGGGKRRPGGEGPQCEKTTDVKKSKFCEADVSSDLRKEVENHYKLSLPEDFYHFWKFCEELDPEKPSDSLSASLGLQLVGPYDILAGKHKTKKKSTGLNFNLHWRFYYDPPEFQTIIIGDNKTQYHMGYFRDSPDEFPVYVGINEAKKNCIIVPNGDNVFAAVKLFLTKKLREITDKKKINLLKNIDEKLTEAARELGYSLEQRTVKMKQRDKKVVTKTFHGAGLVVPVDKNDVGYRELPETDADLKRICKTIVEAASDEERLKAFAPIQEMMTFVQFANDECDYGMGLELGMDLFCYGSHYFHKVAGQLLPLAYNLLKRNLFAEIIEEHLANRSQENIDQLAA
modifications: Alexa Fluor 647 C2 maleimide (extent of labeling typically between 20 and 80%); labelled residue not stated
notes: human HPF1; cDNA amplified by PCR and cloned between the Nde1 and Xho1 sites of pET28a; also called HPF1_Alexa647; HPF1_A647; source: E. coli Rosetta2 (DE3) pLysS, purified (HisTrap, Superdex 75), then labelled
Turning to B1, the Kd in test [1] was above 3 µM; in test [2], above 10 µM.
